{
  "source": "patent US9486519B2",
  "about": "“Use of FLT3 ligand for enhancing immune responses in RNA immunization” (BioNTech AG, priority 2008, dated 2016)",
  "key": {"[1]": {"system": "RNA uptake in the lymph nodes", "test": "Effect of Flt3-L on RNA uptake in lymph nodes, in-vivo bioluminescence", "set-up": "species or system C57BL/6 mice", "settings": "10 μg i.p. day 0 and 3; 20 μg luciferase-RNA intranodally day 10", "experimental": "(f) Effect of Flt3-L on RNA uptake. C57BL/6 mice (n=8) were treated i.p. on day 0 and 3 with 10 μg, Flt3-L, or were not treated in the control group. On day 10 the mice were injected intranodally with 20 μg luciferase-RNA. 24 h later the luciferase signal was measured by in-vivo bioluminescence.\nC57BL/6 mice (n=8) were treated i.p. on day 0 and 3 with 10 μg Flt3-L or were not treated in the control group. On day 10 the mice were injected intranodally with 20 μg luciferase-RNA. 24 h later the luciferase signal was measured by in-vivo bioluminescence. […] The bars give the mean value of all measured values for a group. The experiment is representative for 3 independent experiments. Statistics: Student's t-test."}, "dendritic cells": {"system": "dendritic cells", "test": "Activation status (CD86, CD80, MHC-II, CD40) of lymph node dendritic cells after Flt3L", "type": "in vivo, C57BL/6 mice", "settings": "10 μg day 0 and 3; day 10", "experimental": "In addition, C57BL/6 mice (n=3-7) were administered Flt3L twice (day 0 and 3, each time 10 μg). On day 10 the lymph nodes were removed and the activation status (CD86, CD80, MHC-II, CD40) of the dendritic cells was determined by flow cytometry."}, "[2]": {"system": "cell populations of the murine lymph node", "test": "Effects of different Flt3L on the cellular composition in lymph nodes", "type": "in vivo, C57BL/6 mice", "settings": "0.4 mol i.p. day 0; lymph nodes day 10", "text": "On day 10 the lymph nodes of the mice were removed and characterized by flow cytometry. Dendritic cells (DCs (marker: CD11c^+/NK1.1^−)), CD4^+ helper T cells (marker: CD3^+/CD4^+/CD8^−/NK1.1^−), CD8^+ T cells (marker: CD3^+/CD8^+/CD4^−/NK1.1^−), CD19^+ B cells (marker: CD19^+/CD3^−/NK1.1^−).\nIn this experiment Flt3 ligand (Flt3-IgG4) was compared with commercially available Flt3 preparations with respect to the effect on different cell populations of the murine lymph node. A product recombinantly expressed in bacteria (Peprotech Flt3L; Peprotech, Hamburg, Germany) and a product expressed in human HEK293 cells (Humanzyme Flt3L, Humanzyme; Chicago Ill., U.S.A.) were used as commercially available Flt3 preparations. Human IgG4 (Sigma-Aldrich, Deisenhofen, Germany) served as control.\nOn day 10 both inguinal lymph nodes of the mice were removed, the cell count determined by means of a Neubauer chamber and the cell populations were characterized by flow cytometry."}},
  "data": [
    {"molecule": "Flt3L-IgG4: recombinant human Flt3 ligand prepared as a fusion protein with IgG4, SEQ ID NO: 6, expressed in HEK293 cells (protein, Fusionsprotein) MTVLAPAWSPTTYLLLLLLLSSGLSGTQDCSFQHSPISSDFAVKIRELSDYLLQDYPVTVASNLQDEELCGGLWRLVLAQRWMERLKTVAGSKMQGLLERVNTEIHFVTKCAFQPPPSCLRFVQTNISRLLQETSEQLVALKPWITRQNFSRCLELQCQPDSSTLPPPWSPRPLEATAPTAPQPPRSPPCPSCPAPEFLGGPSVFLFPPKPKDTLMISRTPEVTCVVVDVSQEDPEVQFNWYVDGVEVHNAKTKPREEQFNSTYRVVSVLTVLHQDWLNGKEYKCKVSNKGLPSSIEKTISKAKGQPREPQVYTLPPSQEEMTKNQVSLTCLVKGFYPSDIAVEWESNGQPENNYKTTPPVLDSDGSFFLYSRLTVDKSRWQEGNVFSCSVMHEALHNHYTQKSLSLSPGK", "values": [
      {"measurement": "RNA uptake in the lymph nodes (in-vivo bioluminescence)", "setting": "[1]", "result": "does not have an inhibitory effect"},
      {"measurement": "maturation of the dendritic cells in the lymph node", "setting": "dendritic cells", "result": "does not lead to maturation of the dendritic cells"},
      {"measurement": "expansion of dendritic cells", "setting": "[2]", "result": "strong similarity"},
      {"measurement": "expansion of the lymphocyte populations", "setting": "[2]", "result": "tended to be strongest"}
    ]}
  ]
}
